The text below walks through data of patent US20240343811A1 (SHANDONG SIMCERE BIOPHARMACUTICAL, published 2024).

Test [1] concerns the target human CD16a (158F), full length, on FlpinCHO cells (human, UniProt P08637 17-254). Briefly: FACS on FlpinCHO cells.
The target of test [2] is T1, human CD16a (158V), full length, on cells (human, UniProt P08637 17-254).
T1 construct: also used as target for the bought Jurkat-NFAT reporter line stably expressing human CD16a (158V); also called FlpinCHO-human CD16a (158V); FlpinCHO-CD16a (158V)
Kind of test: FACS on FlpinCHO cells.

Test [3] deals with T2, human CD16b (NA1), full length, on FlpinCHO cells (human, UniProt O75015 17-200).
T2 construct: also called FlpinCHO-human CD16b (NA1)
T2 chain: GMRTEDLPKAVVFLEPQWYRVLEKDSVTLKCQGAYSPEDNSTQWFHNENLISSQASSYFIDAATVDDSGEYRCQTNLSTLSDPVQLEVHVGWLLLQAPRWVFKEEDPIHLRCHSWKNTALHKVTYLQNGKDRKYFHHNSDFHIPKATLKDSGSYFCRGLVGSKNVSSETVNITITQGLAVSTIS
Briefly: FACS on FlpinCHO cells. An outline of the steps:
(§1)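 EC50 values come from fitted MFI curves measured by FACS. Antibody dilutions were bound for 1 hour on ice to CD16b-transfected FlpinCHO cells suspended in PBS with 2% BSA blocking solution.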

Test [4] has as its target T3, human CD16b (NA2), full length, on FlpinCHO cells (human, UniProt O75015 17-200).
T3 construct: also called FlpinCHO-human CD16b (NA2)
T3 chain: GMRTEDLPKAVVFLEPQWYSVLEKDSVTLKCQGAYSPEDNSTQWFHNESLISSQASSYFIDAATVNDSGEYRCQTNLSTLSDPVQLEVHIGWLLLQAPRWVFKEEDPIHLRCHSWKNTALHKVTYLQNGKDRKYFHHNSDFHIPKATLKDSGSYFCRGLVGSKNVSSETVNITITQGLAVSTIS
Briefly: FACS on FlpinCHO cells. An outline of the steps:
as §1

For test [5], the target named is T1, human CD16a (158V), full length, on …. Kind of test: cell-based or functional assay.
The next test addresses T4, Human CD16a (158F)-his (human).
T4 construct: entry holds ECD, AVI tag, linker and His tag
Briefly: SPR (Biacore), antibody captured on Protein A. An outline of the steps: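 Protein A–captured antibody was probed with CD16-his ECD in HBS-EP+ at 25 °C: five 2-fold dilutions from 200 nM, 240 s at 30 μL/min, dissociation up to 600 s. Glycine pH 1.5 regenerated the chip. Apparent KD came from a double-referenced 1:1 Langmuir fit.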

The target in test [6] is T5, CD16 on primary human NK cells (human, UniProt P08637 17-254).
T5 construct: whole, on cells; also called resting NK cells
Kind of test: FACS on human NK cells, biotinylated antibody.

For test [7], the target named is T5, CD16 on primary human NK cells. Kind of test: FACS on human NK cells, biotinylated antibody, +10 mg/mL human immunoglobulin.
The target in test [8] is T6, cynomolgus monkey CD16, full length, on FlpinCHO cells (cynomolgus monkey, UniProt Q8SPW2 17-254).
T6 construct: also called FlpinCHO-cyno CD16; Flipin CHO-cyno CD16
T6 sequence (Q8SPW2 other isoform, or with tags, fused parts or gaps limits assumed): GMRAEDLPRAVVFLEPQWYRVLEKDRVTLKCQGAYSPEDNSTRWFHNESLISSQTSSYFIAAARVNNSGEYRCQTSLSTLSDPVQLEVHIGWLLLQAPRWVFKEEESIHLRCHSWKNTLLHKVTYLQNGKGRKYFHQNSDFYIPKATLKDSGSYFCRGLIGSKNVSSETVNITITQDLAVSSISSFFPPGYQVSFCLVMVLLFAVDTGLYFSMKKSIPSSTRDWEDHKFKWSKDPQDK
Briefly: FACS on FlpinCHO cells. Here is the method:
The required cells were scale-up cultured in a T-75 cell culture flask to the logarithmic growth phase. The medium was aspirated, and the cells were washed twice with a PBS buffer and then digested with trypsin. After the digestion was terminated, the cells were washed twice with the PBS buffer. The cells were counted, and then the cell pellet was resuspended with a [PBS+2% (w/w) BSA] blocking solution to 2×10⁶ cells/ml, and added to a 96-well FACS reaction plate at 50 μl/well. […] 50 μl/well of the antibody to be detected was added at different concentrations, and incubated on ice for 1 hour. […] The mixture was centrifuged and washed 5 times with PBS, and FACS (FACS Canto II, purchased from BD Company) was used for detection and result analysis. Data analysis was performed by software (CellQuest) to obtain the mean fluorescence intensity (MFI) of the cells. Then, software (GraphPad Prism8) was used for analysis, data fitting and EC50 value calculation.
Flipin CHO-cyno CD16 cells were subjected to FACS detection and data analysis according to the method of Example 3.1.

B1: VHH06-04 humanized VHH-Fc antibody (Fc fusion)
chain: EVQLVESGGGVVQPGGSLRLSCAASGSTWTTYAVRWYRQAPGKQREWVAFISVDGSTNYPDSVKGRFTISRDNSKNTVYLQMNSLRAEDTADYICRVGGQYWGQGTMVTVSSEPKSSDKTHTCPPCPAPEEFGGPSVFLFPPKPKDTLMISRTPEVTCVVVAVSHEDPEVKFNWYVDGVEVHNAKTKPREEQYNSTYRVVSVLTVLHQDWLNGKEYKCKVSNKALPAPIEKTISKAKGQPREPQVYTLPPSREEMTKNQVSLTCLVKGFYPSDIAVEWESNGQPENNYKTTPPVLDSDGSFFLYSKLTVDKSRWQQGNVFSCSVMHEALHNHYTQKSLSLSPGK
Turning to B1, in [1], the EC50 (usually the concentration that produces a half-maximal response) came out at 0.39 nM and the “Maximum mean fluorescence intensity” value was 9570. Also, in test [2], the EC50 was found to be 0.4 nM and the “Maximum mean fluorescence intensity” value came out at 8890. Further, in test [3], the EC50 is 0.32 nM and the “Maximum mean fluorescence intensity” value was 53000. In addition, in test [4], the “Maximum mean fluorescence intensity” value amounted to 437 and the binding result is “no binding (tested: 100 nM)”. In test [5], the “EC50, activation activity for Jurkat cell” value (“EC50, activation activity” for short) was 0.02 nM and the Maximum fluorescence value came to 159000. Also, in the test with Human CD16a (158F)-his, the Kd (commonly the constant that tells how readily two partners part at equilibrium) is 9.8 nM; the koff (in general, the rate constant with which the complex falls apart) is 0.000467 s⁻¹; the kon (in general, the second-order rate constant of association) came to 47700 M⁻¹ s⁻¹. Moreover, in test [6], the EC50 was 1.34 nM and the “Maximum mean fluorescence intensity” value was 61800. In test [7], it took 3.99 nM to reach a half-maximal effect (EC50) and the “Maximum mean fluorescence intensity” value amounted to 71400.

B2: VHH06-05 humanized VHH-Fc antibody (Fc fusion)
chain: EVQLVESGGGVVQPGGSLRLSCAASGSTWTTYAVRWYRQAPGKQREWVAFISVDGSTNYADSVKGRFTISRDNAKNTVYLQMNSLRAEDTADYICRVGGQYWGQGTMVTVSSEPKSSDKTHTCPPCPAPEEFGGPSVFLFPPKPKDTLMISRTPEVTCVVVAVSHEDPEVKFNWYVDGVEVHNAKTKPREEQYNSTYRVVSVLTVLHQDWLNGKEYKCKVSNKALPAPIEKTISKAKGQPREPQVYTLPPSREEMTKNQVSLTCLVKGFYPSDIAVEWESNGQPENNYKTTPPVLDSDGSFFLYSKLTVDKSRWQQGNVFSCSVMHEALHNHYTQKSLSLSPGK
As for B2, in test [1], the midpoint of the response, the EC50, lay at 0.27 nM and the “Maximum mean fluorescence intensity” value came out at 8890. For the same molecule, in test [2], the half-maximal effective concentration (EC50) is 0.23 nM and the “Maximum mean fluorescence intensity” value was 8840. Besides, in test [3], the EC50 worked out at 0.18 nM and the “Maximum mean fluorescence intensity” value was 55200. Besides, in test [4], the “Maximum mean fluorescence intensity” value came out at 296 and the binding result is given as “no binding (tested: 100 nM)”. Also, in [5], the “EC50, activation activity” value worked out at 0.03 nM and the Maximum fluorescence value amounted to 176000. In addition, in the test with Human CD16a (158F)-his, the Kd stood at 26.9 nM, the koff is 0.00109 s⁻¹ and the kon is 40300 M⁻¹ s⁻¹. In [6], the EC50 came to 1.33 nM and the “Maximum mean fluorescence intensity” value amounted to 53900. Besides, in test [7], the EC50 worked out at 3.66 nM and the “Maximum mean fluorescence intensity” value worked out at 64900.

B3: VHH12-05 humanized VHH-Fc antibody (Fc fusion)
chain: EVQLVESGGGLVQPGGSLRLSCAASGITFSSYAMGWYRQAPGKQRELVAAINRFGLTNYVDSVKGRFTISRVNAKNSLYLQMNSLRAEDTAVYYCNTGGVYSHPDYYTGTYWGQGTMVTVSSEPKSSDKTHTCPPCPAPEEFGGPSVFLFPPKPKDTLMISRTPEVTCVVVAVSHEDPEVKFNWYVDGVEVHNAKTKPREEQYNSTYRVVSVLTVLHQDWLNGKEYKCKVSNKALPAPIEKTISKAKGQPREPQVYTLPPSREEMTKNQVSLTCLVKGFYPSDIAVEWESNGQPENNYKTTPPVLDSDGSFFLYSKLTVDKSRWQQGNVFSCSVMHEALHNHYTQKSLSLSPGK
With B3, the EC50 in test [1] came out at 0.35 nM; in test [2], 0.41 nM; in test [3], 0.95 nM; in test [8], 0.55 nM; in test [6] it was 0.65 nM; in [7], 2.48 nM. For the same molecule, the “Maximum mean fluorescence intensity” value in [1] was 9340; in test [2], 8130; in test [3] it was 48200; in test [4], 74000; in test [8] it was 18300; in test [6], 70400. Also, the “Maximum mean fluorescence intensity” value in test [7] came out at 72100. Besides, in test [5], the “EC50, activation activity” value amounted to 0.01 nM. In [5], this molecule returned a Maximum fluorescence value of 122000. This molecule returned a Kd in the test with Human CD16a (158F)-his of 53.9 nM. This molecule yielded a koff with Human CD16a (158F)-his of 0.0208 s⁻¹. The kon in the test with Human CD16a (158F)-his turned out to be 385000 M⁻¹ s⁻¹.

B4: VHH12-06 humanized VHH-Fc antibody (Fc fusion)
chain: EVQLVESGGGLVQPGGSLRLSCAASGITFSSYAMGWYRQAPGKQRELVAAINRFGLTNYVDSVKGRFTISRDNAKNSVYLQMNSLRAEDTAVYYCNTGGVYSHPDYYTGTYWGQGTMVTVSSEPKSSDKTHTCPPCPAPEEFGGPSVFLFPPKPKDTLMISRTPEVTCVVVAVSHEDPEVKFNWYVDGVEVHNAKTKPREEQYNSTYRVVSVLTVLHQDWLNGKEYKCKVSNKALPAPIEKTISKAKGQPREPQVYTLPPSREEMTKNQVSLTCLVKGFYPSDIAVEWESNGQPENNYKTTPPVLDSDGSFFLYSKLTVDKSRWQQGNVFSCSVMHEALHNHYTQKSLSLSPGK
B4: the EC50 worked out at 0.6 nM in test [1]; 0.64 nM in test [2]; 1.94 nM in [3]; 0.83 nM in [8]; 0.53 nM in [6]; 1.69 nM in test [7]. For the same molecule, the “Maximum mean fluorescence intensity” value turned out to be 8770 in test [1]; 7550 in test [2]; 40600 in test [3]; 69800 in test [4]; 18600 in test [8]; 39300 in [6]. In addition, the “Maximum mean fluorescence intensity” value in [7] turned out to be 38100. Besides, the “EC50, activation activity” value in test [5] turned out to be 0.02 nM. This molecule returned a Maximum fluorescence value in test [5] of 158000. In the test with Human CD16a (158F)-his, binding was characterised by a dissociation constant (Kd) of 27.6 nM. The molecule further registered a koff with Human CD16a (158F)-his of 0.0164 s⁻¹. In the test with Human CD16a (158F)-his, this molecule yielded a kon of 592000 M⁻¹ s⁻¹.
